Source: the RNAGym collection of RNA variant scans (doi:10.1073/pnas.2313332121)
Fewer inactive variants are shown than the library holds.

B1: TPR 5TU (parent)
chain: GGAUCUUCUCGAUCUAACAAAAAAGACAAAUCUGCCACAAAGCUUGAGAGCAUCUUCGGAUGCAGAGGCGGCAGCCUUCGGUGGCGCGAUAGCGCCAACGUUCUCAACUAUGACACGCAAAACGCGUGCUCCGUUGAAUGGAGUUUAUCAUG

Variants of: B1
Assay: polymerase ribozyme fitness, log enrichment relative to wild type (log ratio); higher = more active; in vitro selection for triplet polymerase activity
Method in brief: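 Libraries of mutants in each subunit of a heterodimeric triplet polymerase ribozyme were generated by PCR and transcribed. In triplicate, each went through one in vitro selection round: annealing with biotinylated primer, partner subunit and triplets; frozen incubation at −7 °C; gel excision of extended constructs; streptavidin-bead capture; RT-PCR. Fitness, taken from Illumina sequencing of input and output libraries, is the logarithm of a genotype's enrichment over wild-type enrichment, averaged across replicates with inverse-variance weights. The logarithm is base 2, and genotypes needed ≥10 input reads and ≥1 read per output to be kept.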

Row | Variant | polymerase ribozyme fitness (log ratio)
1 | A73G C93G | -2.73
2 | G62U A73C G94C | ≤ -4.2
3 | U61A A91C | ≤ -4.2
4 | C69A A73G C87U | ≤ -4.2
5 | A73G U144C | 0.137
6 | A73G U144G | 1.28
7 | C69G G94A U104G | -1.19
8 | C69U C85U U148C | -2.71
9 | A73G C75U U77C A89U G136A C149G | ≤ -4.2
10 | U61C G81A | -2.36
11 | G70C C87A G140C | ≤ -4.2
12 | G71C C79U A91C U135G | ≤ -4.2
13 | G70A G81U | -3.25
14 | U61A C149U | -1.63
15 | A73U C76U | -1.32
16 | G71A G140U U148C | ≤ -4.2
17 | A73G U130C | 0.842
18 | G70A G124C U144C | ≤ -4.2
19 | G71A C95U | -3.12
20 | C72G U146G | ≤ -4.2
21 | G62U C85U C96U C118U | -1.28

Row | Variant | polymerase ribozyme fitness (log ratio)
22 | G65A C69A G84A | -1.8
23 | G70A U77G U78G C87A A97C A122U | ≤ -4.2
24 | G68C G74C C87U C118A U135A C149G | ≤ -4.2
25 | A66C A73C G140U A147C | ≤ -4.2
26 | C69U C95U U101G G152C | -3.5
27 | C69A U77C A98U A122U U146C U151A | ≤ -4.2
28 | A64G G86U U130C | ≤ -4.2
29 | G68A A147U | -4.05
30 | U61A C75U | -1.92
31 | A73G G86A A150G | ≤ -4.2
32 | A64G C87A C105A U144G | ≤ -4.2
33 | G68A C79U A91G | -4.14
34 | G62A A115G A120G | -0.97
35 | A73U C75A A98U C114U C125A U135A | ≤ -4.2
36 | A73G G83C C95G A120C A122G | ≤ -4.2
37 | A66G G92C | -3.77
38 | A73G G81A C85U | 0.246
39 | U61A U102C U111G A115G C123A U139G | ≤ -4.2
40 | U61A A66C G80A U82G | ≤ -4.2
41 | C72U A89C C95U C105U | -1.12
42 | C63A U102C A142G | -2.31

Row | Variant | polymerase ribozyme fitness (log ratio)
43 | G62C A97G | -0.203
44 | A73U A115G | -2.08
45 | G67C C79G A97U C116A A142C | ≤ -4.2
46 | G68A C96A C99U A110G U145C | ≤ -4.2
47 | A64C C93U U102G | ≤ -4.2
48 | G68A C93G | ≤ -4.2
49 | A64C G88C U90G U102G A119U A120U C149G | ≤ -4.2
50 | U61A C99U | -2.69
51 | C72U U78A G84A | ≤ -4.2
52 | C69A G86A C149A | ≤ -4.2
53 | U61A A66C A73U A91G | ≤ -4.2
54 | C69A U148A | -4.08
55 | G62A C85U G86U C87G | ≤ -4.2
56 | C63G G92A U145G | -2.07
57 | U61C C85U | -2.66
58 | A73G C125U | -0.349
59 | U61A A89C A106C U148A | ≤ -4.2
60 | C72U C75U C87A U90A C95G U102G A150G | ≤ -4.2
61 | C69G A73G | -2.59
62 | C69U C93A C103U C116A U148G | ≤ -4.2
63 | G67U G70U G81A G83U A97U | ≤ -4.2

Row | Variant | polymerase ribozyme fitness (log ratio)
64 | G70A G94U C96G A142C U148A | ≤ -4.2
65 | C63U C93A | -3.69
66 | A73G G140A | -2.98
67 | G62A A120C | -1.04
68 | G62A C85U A115U G141U | -1.19
69 | C69U G86A | -1.13
70 | C69A A89U | -1.41
71 | A66G C85A | -3.39
72 | G70A C87A C99A | ≤ -4.2
73 | A64C G68C C87A A91G C99A A121C A122C G143U | ≤ -4.2
74 | A73G C85U | -0.115
75 | U61A U102C | -2.2
76 | G62A C103A G152A | -3.85
77 | G62C C63U | -2.25
78 | C72U U101C | 0.482
79 | G71U C85U | -1.67
80 | C69U G126C | -0.197
81 | U61A A64C G68U G86C | ≤ -4.2
82 | A73G A137C U145G | -3.74
83 | G68A C85U A110G | ≤ -4.2
